The target in data set [1] is E. coli RNA polymerase β′ subunit (E. coli, UniProt P0A8T7 1-1407). The data set can be described thus: cryo-EM structure.
For data set [2], the target named is sigma70 (RpoD);RNAP core enzyme wild type (alpha2 beta beta' omega) (Escherichia coli;Escherichia coli, UniProt P00579;P0A7Z4;P0A8V2;P0A8T7;P0A800 1-613;1-329;1-1342;1-1407;1-91, |). Kind of data set: DNase I footprinting.
sigma70 (RpoD);RNAP core enzyme wild type (alpha2 beta beta' omega), sequence (P00579 whole entry, chain 1 of 4): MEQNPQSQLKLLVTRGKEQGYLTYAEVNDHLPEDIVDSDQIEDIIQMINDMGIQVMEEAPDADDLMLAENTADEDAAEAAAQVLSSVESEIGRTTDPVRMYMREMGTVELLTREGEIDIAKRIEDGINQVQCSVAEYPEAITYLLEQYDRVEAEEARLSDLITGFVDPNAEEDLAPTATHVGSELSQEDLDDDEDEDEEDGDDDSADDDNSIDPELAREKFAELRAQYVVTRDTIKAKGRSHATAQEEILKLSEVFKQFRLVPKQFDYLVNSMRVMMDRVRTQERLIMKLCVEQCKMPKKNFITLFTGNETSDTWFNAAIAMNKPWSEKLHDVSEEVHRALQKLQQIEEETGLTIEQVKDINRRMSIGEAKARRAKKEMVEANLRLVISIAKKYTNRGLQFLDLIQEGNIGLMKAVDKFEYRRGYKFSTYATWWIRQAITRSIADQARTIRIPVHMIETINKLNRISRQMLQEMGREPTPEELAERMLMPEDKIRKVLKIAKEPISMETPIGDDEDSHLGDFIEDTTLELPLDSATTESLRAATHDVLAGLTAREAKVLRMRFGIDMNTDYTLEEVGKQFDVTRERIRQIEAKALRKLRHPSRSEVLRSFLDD
sigma70 (RpoD);RNAP core enzyme wild type (alpha2 beta beta' omega), sequence (P0A7Z4 whole entry, chain 2 of 4): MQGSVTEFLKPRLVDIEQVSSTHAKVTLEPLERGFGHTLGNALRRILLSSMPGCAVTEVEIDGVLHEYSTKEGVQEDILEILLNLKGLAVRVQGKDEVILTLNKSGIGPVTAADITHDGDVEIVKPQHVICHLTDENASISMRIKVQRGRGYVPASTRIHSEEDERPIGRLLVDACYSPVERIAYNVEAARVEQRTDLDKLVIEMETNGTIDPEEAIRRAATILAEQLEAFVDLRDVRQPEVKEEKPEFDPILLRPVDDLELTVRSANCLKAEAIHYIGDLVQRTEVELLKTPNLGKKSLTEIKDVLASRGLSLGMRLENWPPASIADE
sigma70 (RpoD);RNAP core enzyme wild type (alpha2 beta beta' omega), sequence (P0A8V2 whole entry, chain 3 of 4): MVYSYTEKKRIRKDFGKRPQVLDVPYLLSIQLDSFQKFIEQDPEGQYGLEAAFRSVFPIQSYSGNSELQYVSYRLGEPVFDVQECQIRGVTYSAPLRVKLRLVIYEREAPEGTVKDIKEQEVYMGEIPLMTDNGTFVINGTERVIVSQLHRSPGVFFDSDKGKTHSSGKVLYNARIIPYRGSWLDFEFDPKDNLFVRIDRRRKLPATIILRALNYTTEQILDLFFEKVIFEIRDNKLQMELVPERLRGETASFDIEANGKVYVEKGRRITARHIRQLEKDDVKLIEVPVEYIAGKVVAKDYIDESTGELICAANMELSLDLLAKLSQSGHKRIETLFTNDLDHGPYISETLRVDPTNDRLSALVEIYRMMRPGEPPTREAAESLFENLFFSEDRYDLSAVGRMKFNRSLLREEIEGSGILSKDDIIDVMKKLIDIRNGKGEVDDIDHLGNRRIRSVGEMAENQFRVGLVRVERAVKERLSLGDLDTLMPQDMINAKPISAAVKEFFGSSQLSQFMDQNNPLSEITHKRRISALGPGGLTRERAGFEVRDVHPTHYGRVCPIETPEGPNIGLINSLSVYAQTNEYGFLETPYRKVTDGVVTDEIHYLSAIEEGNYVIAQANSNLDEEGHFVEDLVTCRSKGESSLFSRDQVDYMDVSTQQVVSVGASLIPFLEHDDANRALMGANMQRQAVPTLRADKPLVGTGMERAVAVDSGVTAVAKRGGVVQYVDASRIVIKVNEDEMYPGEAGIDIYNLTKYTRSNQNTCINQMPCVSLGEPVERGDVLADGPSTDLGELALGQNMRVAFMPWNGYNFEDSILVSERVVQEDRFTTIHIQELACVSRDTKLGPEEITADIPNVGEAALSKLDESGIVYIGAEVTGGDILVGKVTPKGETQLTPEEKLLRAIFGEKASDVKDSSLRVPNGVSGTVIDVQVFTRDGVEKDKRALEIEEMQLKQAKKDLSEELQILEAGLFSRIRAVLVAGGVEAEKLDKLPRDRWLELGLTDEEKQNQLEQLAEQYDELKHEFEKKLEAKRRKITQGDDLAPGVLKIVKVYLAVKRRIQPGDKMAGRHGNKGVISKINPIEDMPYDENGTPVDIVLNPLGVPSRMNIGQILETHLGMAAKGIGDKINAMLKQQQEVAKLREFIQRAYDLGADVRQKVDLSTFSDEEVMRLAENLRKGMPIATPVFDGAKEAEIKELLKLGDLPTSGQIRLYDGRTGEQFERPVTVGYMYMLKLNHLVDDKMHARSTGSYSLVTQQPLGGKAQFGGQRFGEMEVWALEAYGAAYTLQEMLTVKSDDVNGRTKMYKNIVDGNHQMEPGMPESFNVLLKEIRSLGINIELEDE
sigma70 (RpoD);RNAP core enzyme wild type (alpha2 beta beta' omega), sequence (P0A800 whole entry, chain 5 of 4): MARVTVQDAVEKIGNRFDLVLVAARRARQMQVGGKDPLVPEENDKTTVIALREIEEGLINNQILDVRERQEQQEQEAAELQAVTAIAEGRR

E. coli RNA polymerase β′ subunit, sequence (P0A8T7 whole entry): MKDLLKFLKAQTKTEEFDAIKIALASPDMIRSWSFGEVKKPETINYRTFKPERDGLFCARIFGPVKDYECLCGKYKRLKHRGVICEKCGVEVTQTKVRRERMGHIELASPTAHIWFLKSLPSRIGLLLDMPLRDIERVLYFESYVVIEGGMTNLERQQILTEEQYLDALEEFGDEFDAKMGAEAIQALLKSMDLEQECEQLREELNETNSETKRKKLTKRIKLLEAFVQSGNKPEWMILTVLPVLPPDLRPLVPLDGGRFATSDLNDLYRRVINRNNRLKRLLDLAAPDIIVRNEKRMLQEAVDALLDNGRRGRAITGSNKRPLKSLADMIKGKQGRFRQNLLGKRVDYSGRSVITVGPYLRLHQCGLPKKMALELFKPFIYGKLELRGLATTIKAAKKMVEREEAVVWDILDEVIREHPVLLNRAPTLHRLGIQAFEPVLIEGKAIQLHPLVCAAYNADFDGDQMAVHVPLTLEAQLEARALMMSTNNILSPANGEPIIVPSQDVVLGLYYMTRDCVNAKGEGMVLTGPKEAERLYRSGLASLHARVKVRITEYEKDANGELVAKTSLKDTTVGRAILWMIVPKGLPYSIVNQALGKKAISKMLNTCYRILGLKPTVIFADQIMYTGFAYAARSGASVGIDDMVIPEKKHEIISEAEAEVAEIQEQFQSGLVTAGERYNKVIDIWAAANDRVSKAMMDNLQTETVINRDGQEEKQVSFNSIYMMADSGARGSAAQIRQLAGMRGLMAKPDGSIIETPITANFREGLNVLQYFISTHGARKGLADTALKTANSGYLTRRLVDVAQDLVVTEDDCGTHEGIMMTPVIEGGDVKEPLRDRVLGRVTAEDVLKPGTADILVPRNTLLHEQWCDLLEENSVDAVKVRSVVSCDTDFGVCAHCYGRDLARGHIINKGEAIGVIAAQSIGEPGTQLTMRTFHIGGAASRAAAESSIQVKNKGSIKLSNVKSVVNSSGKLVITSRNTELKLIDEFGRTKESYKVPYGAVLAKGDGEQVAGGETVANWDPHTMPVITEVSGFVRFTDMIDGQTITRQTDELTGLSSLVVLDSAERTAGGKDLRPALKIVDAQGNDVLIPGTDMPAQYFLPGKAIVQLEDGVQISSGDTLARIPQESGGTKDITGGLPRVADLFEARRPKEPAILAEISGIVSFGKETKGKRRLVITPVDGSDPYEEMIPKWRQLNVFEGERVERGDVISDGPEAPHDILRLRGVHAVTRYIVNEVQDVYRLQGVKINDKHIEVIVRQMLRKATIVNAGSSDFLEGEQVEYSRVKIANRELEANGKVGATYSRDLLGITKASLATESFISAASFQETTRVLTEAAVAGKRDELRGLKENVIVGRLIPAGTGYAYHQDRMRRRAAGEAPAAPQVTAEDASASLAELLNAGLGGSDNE

B1: E. coli σ^28 factor (natural protein, UniProt P0AEM6 1-239, looked up)
chain: MNSLYTAEGVMDKHSLWQRYVPLVRHEALRLQVRLPASVELDDLLQAGGIGLLNAVERYDALQGTAFTTYAVQRIRGAMLDELRSRDWVPRSVRRNAREVAQAIGQLEQELGRNATETEVAERLGIDIADYRQMLLDTNNSQLFSYDEWREEHGDSIELVTDDHQRENPLQQLLDSNLRQRVMEAIETLPEREKLVLTLYYQEELNLKEIGAVLEVGESRVSQLHSQAIKRLRTKLGKL
Take B1: the binding result in data set [1] was “binds”.

B2: lacUV5p (dsDNA)
DNA 1: CCCGCCGACAGGTTTCCCGACTGGAAAGCGGGCAGTGAGCGCAACGCAATTAATGTGAGTTAGCTCACTCATTAGGCACCCCAGGCTTTACACTTTATGCTTCCGGCTCGTATAATGTGTGGAATTGTGAGCGGATAACAATTTCACACAGGAAACAGCTATGACCATGGGCGCGG
DNA 2: CCGCGCCCATGGTCATAGCTGTTTCCTGTGTGAAATTGTTATCCGCTCACAATTCCACACATTATACGAGCCGGAAGCATAAAGTGTAAAGCCTGGGGTGCCTAATGAGTGAGCTAACTCACATTAATTGCGTTGCGCTCACTGCCCGCTTTCCAGTCGGGAAACCTGTCGGCGGG
Turning to B2, the binding result in data set [2] is “binds”.

(Values after article doi:10.1101/2020.01.02.893370 (bioRxiv, 2020).)
